# Residue numbers refer to the chain shown, from its start. In names and notes the source's numbering stands.
# B1: mtGGGPS (Methanothermobacter thermautotrophicus str. Delta H) (protein)
# chain: MKVEDYFHDILRERKIHLTLIDPEEQTPEEAVEIARAAIRGGTDGIMLGGSTTDSSELDNTARALRENIDVPIILFPGNTTGVSRYADAIFFMSLLNSTNPYWIIGAQALGAATVKKMGIEALPMGYLVVEPGGTVGWVGDTKPVPRNKPDIAAAYAMAAEFLGMRLFYLEAGSGAPEHVPEEMIALVKRCTDQILIVGGGIRSGEDAARVAGAGADVVVTGTVVENSDNVEDKIREIVEGMGSV
# notes: His-tagged, expressed in E. coli BL21-Gold(DE3); hexamer (trimer of dimers); C194A/K146C variant is a dimer unless rescued
# B2: mtGGGPS (Methanothermobacter thermautotrophicus str. Delta H; C191A) (protein)
# chain: B1 chain with C191A
# notes: as for B1
# Assays:
# [1] = tested on: T1, RGGGPS (AncGGGPS2_N4_IF_n12); experiment: coupled pyrophosphate/phosphate detection at […] nm (PPase, PNPase, xanthine oxidase), G1P-dependent; assay type: biochemical; conditions: 11 μM GGPP, 10 mM MgCl2, pH 8.0, 40 °C, 0.2 % Tween80
# T1 construct: His-tagged, from E. coli; hexamer
# [2] = molecular target: T2, mtGGGPS (Methanothermobacter thermautotrophicus, UniProt O26652, K143C/C191A, form not given); experiment: as above; assay type: biochemical; conditions: 11 μM GGPP, 10 mM MgCl2, pH 8.0, 40 °C, 0.2 % Tween80; without bromoethylamine (−Am), dimer
# T2 construct: gene MTH_552; His-tagged, expressed in E. coli BL21-Gold(DE3); hexamer (trimer of dimers); C194A/K146C variant is a dimer unless rescued
# [3] = molecular target: geranylgeranylglyceryl phosphate synthase from Methanothermobacter thermautotrophicus, wild type (Methanothermobacter thermautotrophicus) (UniProt O26652); experiment: SEC-MALS; analytical SEC (Superdex 200 Increase 10/300 GL) in combination with static light scattering (right-angle light scattering and refractive index detectors); 40 μM subunit concentration; 50 mM potassium phosphate, pH 7.5, 300 mM KCl; room temperature (approx. 23 °C)
# [4] = molecular target: mtGGGPS_(C194A) (Methanothermobacter thermautotrophicus) (UniProt O26652); experiment: as above
# [5] = molecular target: mtGGGPS_(C194A)_K146C^+Am (Methanothermobacter thermautotrophicus) (UniProt O26652)
# [6] = molecular target: mtGGGPS_(C194A)_K146C^+Am (Methanothermobacter thermautotrophicus) (UniProt O26652); experiment: SEC-MALS; analytical SEC (Superdex 200 Increase 10/300 GL) in combination with static light scattering (right-angle light scattering and refractive index detectors); 40 μM subunit concentration; 50 mM potassium phosphate, pH 7.5, 300 mM KCl; room temperature (approx. 23 °C)
# [7] = substrate: O=P(O)(O)OC[C@@H](O)CO; experiment: purified protein; assay type: biochemical, Methanothermobacter thermautotrophicus; conditions: 11 μM GGPP, 10 mM MgCl2, pH 8.0, 40 °C, 0.2 % Tween80
# T2 sequence (O26652 whole entry K143C/C191A, form open): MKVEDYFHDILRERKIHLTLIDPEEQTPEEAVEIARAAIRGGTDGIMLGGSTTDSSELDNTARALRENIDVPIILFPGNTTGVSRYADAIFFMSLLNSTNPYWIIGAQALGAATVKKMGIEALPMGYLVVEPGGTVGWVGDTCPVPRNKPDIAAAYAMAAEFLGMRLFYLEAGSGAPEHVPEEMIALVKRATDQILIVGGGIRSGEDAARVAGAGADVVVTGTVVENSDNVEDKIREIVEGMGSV
molecule,measurement,setting,value
"O=P(O)(O)OC[C@@H](O)CO [G1P, glycerol 1‐phosphate]",Km,[1],14.2 ± 2.2 µM
same,Km,[2],63.4 ± 5.8 µM
"geranylgeranylglyceryl phosphate synthase from Methanothermobacter thermautotrophicus, wild type (from UniProt O26652 1-245) (enzyme)",stoichiometry N,[3],6
mtGGGPS_(C194A) (from UniProt O26652 1-245) (enzyme),stoichiometry N,[4],6
mtGGGPS_(C194A)_K146C^+Am (from UniProt O26652 1-245) (enzyme),"kcat/KM, photometric assay of the GGGPS reaction at 40 °C",[5],192000 M⁻¹ s⁻¹
same,percent in the hexameric state,[6],100%
same,stoichiometry N,[6],6
mtGGGPS_(C194A)_K146C^−Am (from UniProt O26652 1-245) (enzyme),"kcat/KM, photometric assay of the GGGPS reaction at 40 °C",[5],550 M⁻¹ s⁻¹
same,stoichiometry N,[6],2
B1,Km,[7],2.0 ± 0.3 µM
same,kcat,[7],0.23 ± 0.005 s⁻¹
same,kcat/Km,[7],115000 ± 17000 M⁻¹ s⁻¹
B2,Km,[7],3.3 ± 0.6 µM
same,kcat,[7],0.29 ± 0.01 s⁻¹
same,kcat/Km,[7],88000 ± 18000 M⁻¹ s⁻¹

# — publication PMC9298306, “Controlling Enzymatic Activity by Modulating the Oligomerization State via Chemical Rescue and Optical Control” (Chembiochem, 2021)
